Data published in US7070973B2, “Butyrylcholinesterase variants and methods of use” (priority 2000, dated 2006).
Changes are numbered by the printed parent chain. Numbers in names are those of the source. Where “and” joins values, the source holds several entries; their conditions need not be identical. Equal values may be shown once. Read-outs that look alike come from different tables or passages of the source.

B1: A328Y (protein, UniProt P06276 29-602, looked up, variant A328Y)
Cholinesterase: EDDIIIATKNGKVRGMNLTVFGGTVTAFLGIPYAQPPLGRLRFKKPQSLTKWSDIWNATKYANSCCQNIDQSFPGFHGSEMWNPNTDLSEDCLYLNVWIPAPKPKNATVLIWIYGGGFQTGTSSLHVYDGKFLARVERVIVVSMNYRVGALGFLALPGNPEAPGNMGLFDQQLALQWVQKNIAAFGGNPKSVTLFGESAGAASVSLHLLSPGSHSLFTRAILQSGSFNAPWAVTSLYEARNRTLNLAKLTGCSRENETEIIKCLRNKDPQEILLNEAFVVPYGTPLSVNFGPTVDGDFLTDMPDILLELGQFKKTQILVGVNKDEGTYFLVYGAPGFSKDNNSIITRKEFQEGLKIFFPGVSEFGKESILFHYTDWVDDQRPENYREALGDVVGDYNFICPALEFTKKFSEWGNNAFFYYFEHRSSKLPWPEWMGVMHGYEIEFVFGLPLERRDNYTKAEEILSRSIVKRWANFAKYGNPNETQNNSTSWPVFKSTEQKYLTLNTESTRIMTKLRAQQCRFWTSFFPKVLEMTGNIDEAEWEWKAGFHRWNNYMMDWKNQFNDYTSKKESCVGL
B2: T120F (protein, UniProt P06276 29-602, looked up, variant T120F)
Cholinesterase: B1 Cholinesterase with T120F, Y328A
B3: G116W (protein, UniProt P06276 29-602, looked up, variant G116W)
Cholinesterase: B1 Cholinesterase with G116W, Y328A
B4: G439L (protein, UniProt P06276 29-602, looked up, variant G439L)
Cholinesterase: B1 Cholinesterase with Y328A, G439L
B5: S287G (protein)
chain: B1 Cholinesterase with S287G, Y328A
modifications: Human Butyrylcholinesterase variant
B6: P285S (protein)
chain: B1 Cholinesterase with P285S, Y328A
modifications: Human Butyrylcholinesterase variant
B7: Y332A (protein, UniProt P06276 29-602, looked up, variant Y332A)
Cholinesterase: B1 Cholinesterase with Y328A, Y332A
B8: A328F (protein, UniProt P06276 29-602, looked up, variant A328F)
Cholinesterase: B1 Cholinesterase with Y328F
B9: Q119Y/V288F/A328Y (protein, UniProt P06276 29-602, looked up, variant Q119Y V288F A328Y)
Cholinesterase: B1 Cholinesterase with Q119Y, V288F
B10: A328G (protein, UniProt P06276 29-602, looked up, variant A328G)
Cholinesterase: B1 Cholinesterase with Y328G
B11: L286H (protein, UniProt P06276 29-602, looked up, variant L286H)
Cholinesterase: B1 Cholinesterase with L286H, Y328A
B12: L286W (protein, UniProt P06276 29-602, looked up, variant L286W)
Cholinesterase: B1 Cholinesterase with L286W, Y328A
B13: A328H (protein, UniProt P06276 29-602, looked up, variant A328H)
Cholinesterase: B1 Cholinesterase with Y328H
B14: Q119Y (protein, UniProt P06276 29-602, looked up, variant Q119Y)
Cholinesterase: B1 Cholinesterase with Q119Y, Y328A
B15: A328I (protein, UniProt P06276 29-602, looked up, variant A328I)
Cholinesterase: B1 Cholinesterase with Y328I
B16: S224Y (protein, UniProt P06276 29-602, looked up, variant S224Y)
Cholinesterase: B1 Cholinesterase with S224Y, Y328A
B17: P285Q (protein)
chain: B1 Cholinesterase with P285Q, Y328A
modifications: Human Butyrylcholinesterase variant
B18: V288F (protein, UniProt P06276 29-602, looked up, variant V288F)
Cholinesterase: B1 Cholinesterase with V288F, Y328A
B19: V288W (protein, UniProt P06276 29-602, looked up, variant V288W)
Cholinesterase: B1 Cholinesterase with V288W, Y328A
B20: butyrylcholinesterase (protein, listed as Homo sapiens)
chain: B1 Cholinesterase with Y328A
B21: A328W (protein)
chain: MDSKVTIICIRFLFWFLLLCMLIGKSHTEDDIIIATKNGKVRGMNLTVFGGTVTAFLGIPYAQPPLGRLRFKKPQSLTKWSDIWNATKYANSCCQNIDQSFPGFHGSEMWNPNTDLSEDCLYLNVWIPAPKPKNATVLIWIYGGGFQTGTSSLHVYDGKFLARVERVIVVSMNYRVGALGFLALPGNPEAPGNMGLFDQQLALQWVQKNIAAFGGNPKSVTLFGESAGAASVSLHLLSPGSHSLFTRAILQSGSFNAPWAVTSLYEARNRTLNLAKLTGCSRENETEIIKCLRNKDPQEILLNEAFVVPYGTPLSVNFGPTVDGDFLTDMPDILLELGQFKKTQILVGVNKDEGTWFLVYGAPGFSKDNNSIITRKEFQEGLKIFFPGVSEFGKESILFHYTDWVDDQRPENYREALGDVVGDYNFICPALEFTKKFSEWGNNAFFYYFEHRSSKLPWPEWMGVMHGYEIEFVFGLPLERRDNYTKAEEILSRSIVKRWANFAKYGNPNETQNNSTSWPVFKSTEQKYLTLNTESTRIMTKLRAQQCRFWTSFFPKVLEMTGNIDEAEWEWKAGFHRWNNYMMDWKNQFNDYTSKKESCVGL
modifications: Human Butyrylcholinesterase variant

Key:
cocaine toxicity = conditions: infusion of cocaine at 1 mg/kg/min, catecholamine levels standardized; cited from earlier work
[1] = Isotope tracer cocaine hydrolysis assay, Lineweaver-Burk plot; assay type: biochemical; conditions: 2 hour incubation at 37° C., x intercept of double-reciprocal plot
Text: (§1) At the conclusion of the isotope tracer assay, an aliquot of the reaction mix is acidified in order to take advantage of the solubility difference between the product and the substrate at pH 3.0.

[2] = Gatley 1991; Xie et al. 1999; read-out: Km for cocaine hydrolysis, previously published values; cited from earlier work
[3] = Spectrophotometric (240 nm) cocaine binding and hydrolysis assay with purified butyrylcholinesterase variants; assay type: biochemical; conditions: for Km / kcat (hydrolysis rate): (−)-cocaine; for Km: 0.1M potassium phosphate pH 7.0 at 30° C.; for kcat (hydrolysis rate): active sites titrated with chlorpyrifos oxon; for Cocaine Binding or Cocaine Hydrolysis (result in words): Table 4
Procedure: […]. Pharmacol. 41:1249–1254 (1991). Km values were determined in 0.1M potassium phosphate pH 7.0 at 30° C. for (−)-cocaine. Vmax values and Km values were calculated using Sigma Plot for Macintosh (Jandel Scientific, San Rafael, Calif.).
Once Vmax values and Km values were calculated, the number of active sites in each butyrylcholinesterase preparation was determined. The titration of active sites was performed with chlorpyrifos oxon (MET-674B, Chem Service, West Chester, Pa.), an inhibitor of butyrylcholinesterase. One molecule of chlorpyrifos oxon binds and inhibits one molecule of butyrylcholinesterase, which allows for calculation of the number of active sites. Based on the number of active sites, the kcat value for each variant was calculated (Table 3). […].

[4] = Xie et al. 1999; cited from earlier work
[5] = Microtiter [3H]-cocaine isotope tracer hydrolysis assay with immobilized butyrylcholinesterase variants; assay type: biochemical; conditions: for increase in cocaine hydrolysis activity compared to human butyrylcholinesterase: region 5 library variants, Examples II through VI; for enhanced cocaine hydrolase activity (library screen): region five library, hydrolysis of [3H]-cocaine
Text: as §1
The supernatants isolated from each of the butyrylcholinesterase variant library clones contains variable butyrylcholinesterase enzyme concentrations.
At least three approaches are used to either increase the assay sensitivity or the assay signal.

[6] = stored at 4° C., after 18 months (Lynch et al.); cited from earlier work

Molecule	Km [3]	kcat (hydrolysis rate) [3]	Cocaine Binding or Cocaine Hydrolysis (result in words) [3]	further results
COC(=O)[C@H]1[C@@H](OC(=O)c2ccccc2)C[C@@H]2CC[C@H]1N2C [cocaine]				LD90 (cocaine toxicity): 16 mg/kg
horse butyrylcholinesterase				Km [1]: ~37.6 µM; Km [2]: 38 µM and 45 µM
B1	9 µM	0.17 s⁻¹		Hydrolyzes cocaine faster than wild-type ([3]; compared to wild-type butyrylcholinesterase): Hydrolyzes cocaine 4 times faster than wild-type; increase in cocaine hydrolysis activity compared to human butyrylcholinesterase [4]: four
B2	97 µM		not a cocaine hydrolase	
B3			no activity	
B4			No cocaine hydrolysis activity	
B5				increase in cocaine hydrolysis activity compared to human butyrylcholinesterase [5]: four; enhanced cocaine hydrolase activity (library screen) [5]: enhanced cocaine hydrolase activity
B6				increase in cocaine hydrolysis activity compared to human butyrylcholinesterase [5]: approximately three; enhanced cocaine hydrolase activity (library screen) [5]: enhanced cocaine hydrolase activity
B7	240 µM			
B8	24 µM	0.0967 s⁻¹	Not a cocaine hydrolase	
B9	33 µM	0.0383 s⁻¹	Not a cocaine hydrolase	
B10			Not a cocaine hydrolase	
B11			Not a cocaine hydrolase	
B12			Not a cocaine hydrolase	
B13			Not a cocaine hydrolase	
B14	56 µM	0.0333 s⁻¹	not a cocaine hydrolase	
B15	11 µM	0.0083 s⁻¹	Not a cocaine hydrolase	
B16			No activity	
B17				increase in cocaine hydrolysis activity compared to human butyrylcholinesterase [5]: four and approximately four; enhanced cocaine hydrolase activity (library screen) [5]: enhanced cocaine hydrolase activity
B18	17 µM	0.0167 s⁻¹	Not a cocaine hydrolase	
B19			Not a cocaine hydrolase	
B20				original activity retained [6]: over 90%
B21	10 µM	0.62 s⁻¹		
